Laboratory results published in EP4703384A1.
Positions count from the first letter of the chain named.

B1: mu-89 (antibody, V domains shown)
VH: EVQLVESGGDLVKPGGSLKLSCAASGFTFSSYGMSWVRQTPDKRLEWVATISSGGSYTYYPDSVKGRFTFSRDNAKNTLYLQMSSLKSEDTAMYYCVRQALRYHMDSWGQGTSVTVSS
VL: DIVMTQSQKFMSTSVGDRVSVTCKASQNVGTNVAWYQQKPGQSPKALIYSASYRYSGVPDRFTGSGSGTDFTLTISNVQSEDLADFFCQQYYSYPWTFGGGTKLEIK
B2: mu-105 (antibody, V domains shown)
VH: EVQLQQSGPELVKPGASVKMSCKASGYTFTDYYMNWVKQSHGKSLEWIGYIYPNNGGTGYNQRFKGKATLTADKSSSTAYMELRSLTSEDSAVYYCARWGGTRLGYYAMDYWGQGTSVTVSS
VL: B1 VL with A34V, A46L, S50W, Y53T, Y55H, S56T, F86Y, Y92S, S93R, W96Y
B3: mu-169 (antibody, V domains shown)
VH: EVKLVESGGGLVKPGASLKLSCAASGFTFSNYGMSWVRQTSDKRLEWVASISSGGGRIYYPDNVKGRFTISRENAKNTLYLQMSSLKSEDTALYYCTRHAMDNWGQGTSVIVSS
VL: QIVLTQSPAIMSASPGEKVTMTCSASSSVSNMYWYQQKSGTSPKRWIYDTSKLASGVPARFSGSGSGTSYSLTISSMEAEDASTYYCQQWSSNPLTFGAGTTLELK
B4: mu-131 (antibody, V domains shown)
VH: EVQLQQSGPELVKPGASVKMSCKASGYTFTNYVMHWVKQKPGQGLEWIGYFNPYNDGTNYNEKFKGKATLTSDKSSNTAYMELSSLTSEDSAVYYCARGGVRRYFDVWGAGTTVTVSS
VL: DIQMTQSPSSLSASLGERVSLTCRASQDIGSNLNWLQLGPDGTIKRLIYATFSLDSGVPKRFSGSRSGSDYSLTISSLESEDFVDYYCQQYANFPPTFGGGTKLEIK
B5: mu-128 (antibody, V domains shown)
VH: DVQLVESGGGLVQPGGSRKVSCAASGFTFSSFGMHWVRQAPEKGLEWVAYISRGSSTIYYADTVKGRFTISRDNPKNTLFLQMTSLRSEDTAMYYCARSGYGSSSYYFDYWGQGTTLTVSS
VL: ENVLTQSPAIMSASPREKVTMTCRASSSIRSSYLHWYQQKSGASPKLWIYSTSNLASGVPARFSGSGSGTSYSLTISSVEAEDAATYYCQQFSGYPLTFGGGTKLEIK

Columns and labels:
[1] = target: human GPRC5D protein (human) (UniProt Q9NZD1); experiment: FACS, hybridoma subclone supernatant on NCI-H929 cells
Sequence of human GPRC5D protein (human) (Q9NZD1 whole entry): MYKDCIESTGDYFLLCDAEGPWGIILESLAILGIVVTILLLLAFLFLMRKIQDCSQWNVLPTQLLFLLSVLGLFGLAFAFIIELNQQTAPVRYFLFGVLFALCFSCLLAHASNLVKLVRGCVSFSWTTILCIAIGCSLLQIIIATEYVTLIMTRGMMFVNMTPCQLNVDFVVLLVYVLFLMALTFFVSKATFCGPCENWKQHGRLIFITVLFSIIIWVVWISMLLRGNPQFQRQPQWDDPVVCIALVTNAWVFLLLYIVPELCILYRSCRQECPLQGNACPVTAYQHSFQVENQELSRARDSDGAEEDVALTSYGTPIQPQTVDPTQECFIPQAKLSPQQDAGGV

[2] = target: CHO-K1-hGPRC5D^hi cells, CHO-K1-cynoGPRC5D cells, and/or CHO-K1-murineGPRC5D cells; experiment: cell ELISA (OD450), subclone supernatant on fixed transfected CHO-K1 cells against CHO-K1

Binder	MFI [1]	fold difference in absorbance as compared to the control cell CHO-K1 [2]
B1	11900 MFI	> 2 fold
B2	13200 MFI	> 2 fold
B3	59300 MFI	> 2 fold
B4	12800 MFI	> 2 fold
B5	15700 MFI	> 2 fold
